Source: US20210206804A1

Assays:
[1] = biological target: αvβ6 integrin on DX3puroβ6 cells (human) (UniProt P06756); assay: cell binding of the radiotracer, DX3puroβ6 cells (FIG. 27)
[2] = biological target: αvβ6 integrin on DX3puroβ6 cells (human) (UniProt P06756); assay: internalization of the radiotracer, DX3puroβ6 cells (FIG. 27)
[3] = biological target: αvβ6 integrin (purified, captured on the ELISA plate) (UniProt P06756); assay: ELISA (format not detailed at this place); not bearing K(IPA)E
Sequence of αvβ6 integrin (purified, captured on the ELISA plate) (P06756 31-992, chain 1 of 2): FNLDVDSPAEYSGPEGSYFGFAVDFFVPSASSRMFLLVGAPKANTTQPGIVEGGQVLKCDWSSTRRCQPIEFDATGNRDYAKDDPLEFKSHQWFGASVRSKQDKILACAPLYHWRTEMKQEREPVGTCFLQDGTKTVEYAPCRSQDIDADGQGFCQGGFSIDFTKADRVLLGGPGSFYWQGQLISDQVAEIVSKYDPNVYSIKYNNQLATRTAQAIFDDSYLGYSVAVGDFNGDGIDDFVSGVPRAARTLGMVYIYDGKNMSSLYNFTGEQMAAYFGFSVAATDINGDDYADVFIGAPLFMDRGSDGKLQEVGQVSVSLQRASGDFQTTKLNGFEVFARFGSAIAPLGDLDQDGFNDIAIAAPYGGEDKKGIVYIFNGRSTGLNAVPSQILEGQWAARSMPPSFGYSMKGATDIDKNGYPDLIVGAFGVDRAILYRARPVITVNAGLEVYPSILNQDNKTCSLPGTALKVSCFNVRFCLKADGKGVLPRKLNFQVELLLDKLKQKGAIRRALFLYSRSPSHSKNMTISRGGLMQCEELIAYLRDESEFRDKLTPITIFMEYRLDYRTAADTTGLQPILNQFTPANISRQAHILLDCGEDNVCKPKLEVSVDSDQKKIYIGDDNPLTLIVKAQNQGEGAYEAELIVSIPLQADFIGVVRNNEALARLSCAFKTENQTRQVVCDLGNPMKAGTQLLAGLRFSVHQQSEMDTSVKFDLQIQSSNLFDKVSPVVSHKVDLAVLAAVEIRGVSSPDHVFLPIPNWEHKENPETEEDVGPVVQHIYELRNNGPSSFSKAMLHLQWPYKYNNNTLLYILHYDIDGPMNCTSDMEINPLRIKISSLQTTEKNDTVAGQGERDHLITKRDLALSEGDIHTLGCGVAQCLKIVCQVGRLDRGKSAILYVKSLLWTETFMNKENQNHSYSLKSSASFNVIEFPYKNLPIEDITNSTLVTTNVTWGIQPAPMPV
Sequence of αvβ6 integrin (purified, captured on the ELISA plate) (P18564 22-707, chain 2 of 2, further chain): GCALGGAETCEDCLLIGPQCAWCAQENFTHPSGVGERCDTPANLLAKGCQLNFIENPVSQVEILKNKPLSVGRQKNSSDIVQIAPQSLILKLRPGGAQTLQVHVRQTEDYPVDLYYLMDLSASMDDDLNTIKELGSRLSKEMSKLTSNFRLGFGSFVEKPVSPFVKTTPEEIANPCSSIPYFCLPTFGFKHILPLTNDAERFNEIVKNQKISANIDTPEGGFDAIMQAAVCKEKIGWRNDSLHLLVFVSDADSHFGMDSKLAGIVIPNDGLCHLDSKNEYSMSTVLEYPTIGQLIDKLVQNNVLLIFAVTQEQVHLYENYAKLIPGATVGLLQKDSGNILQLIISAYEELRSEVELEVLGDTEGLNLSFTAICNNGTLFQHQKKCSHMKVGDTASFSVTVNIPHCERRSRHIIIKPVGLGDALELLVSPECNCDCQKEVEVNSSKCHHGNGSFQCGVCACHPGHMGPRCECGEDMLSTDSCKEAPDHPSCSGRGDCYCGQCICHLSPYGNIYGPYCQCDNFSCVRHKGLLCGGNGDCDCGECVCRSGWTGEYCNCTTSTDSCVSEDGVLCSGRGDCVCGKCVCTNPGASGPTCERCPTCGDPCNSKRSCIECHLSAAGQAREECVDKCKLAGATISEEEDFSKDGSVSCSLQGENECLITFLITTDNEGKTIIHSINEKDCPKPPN

Sequence of αvβ6 integrin on DX3puroβ6 cells (human) (P06756 31-1048 limits assumed, chain 1 of 2): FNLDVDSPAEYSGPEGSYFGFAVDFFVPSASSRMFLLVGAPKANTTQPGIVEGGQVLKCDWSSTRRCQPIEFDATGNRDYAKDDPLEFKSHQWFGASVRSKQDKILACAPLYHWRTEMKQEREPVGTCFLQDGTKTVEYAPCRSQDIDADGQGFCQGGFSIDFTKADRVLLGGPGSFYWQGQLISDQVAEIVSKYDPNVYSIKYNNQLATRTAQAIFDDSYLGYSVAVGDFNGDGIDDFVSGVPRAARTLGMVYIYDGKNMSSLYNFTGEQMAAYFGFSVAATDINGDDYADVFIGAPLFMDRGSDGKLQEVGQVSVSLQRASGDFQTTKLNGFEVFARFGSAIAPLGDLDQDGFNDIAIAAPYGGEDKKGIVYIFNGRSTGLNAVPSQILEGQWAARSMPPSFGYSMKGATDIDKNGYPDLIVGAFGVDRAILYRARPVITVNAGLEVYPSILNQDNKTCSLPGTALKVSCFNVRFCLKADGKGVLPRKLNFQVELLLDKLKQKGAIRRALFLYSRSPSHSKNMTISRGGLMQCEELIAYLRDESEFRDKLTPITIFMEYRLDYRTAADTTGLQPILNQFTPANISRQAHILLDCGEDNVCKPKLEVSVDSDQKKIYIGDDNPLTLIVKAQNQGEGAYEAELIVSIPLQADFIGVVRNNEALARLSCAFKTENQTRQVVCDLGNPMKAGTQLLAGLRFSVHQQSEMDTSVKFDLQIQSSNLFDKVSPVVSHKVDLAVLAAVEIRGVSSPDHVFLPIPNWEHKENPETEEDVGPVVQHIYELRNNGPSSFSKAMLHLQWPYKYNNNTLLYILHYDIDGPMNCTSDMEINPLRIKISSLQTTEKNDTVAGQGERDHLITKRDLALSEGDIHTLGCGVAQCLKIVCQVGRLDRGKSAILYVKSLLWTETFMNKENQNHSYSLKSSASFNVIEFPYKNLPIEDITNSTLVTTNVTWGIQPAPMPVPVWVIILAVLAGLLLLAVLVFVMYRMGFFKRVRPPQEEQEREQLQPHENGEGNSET
Sequence of αvβ6 integrin on DX3puroβ6 cells (human) (P18564 22-788 limits assumed, chain 2 of 2, further chain): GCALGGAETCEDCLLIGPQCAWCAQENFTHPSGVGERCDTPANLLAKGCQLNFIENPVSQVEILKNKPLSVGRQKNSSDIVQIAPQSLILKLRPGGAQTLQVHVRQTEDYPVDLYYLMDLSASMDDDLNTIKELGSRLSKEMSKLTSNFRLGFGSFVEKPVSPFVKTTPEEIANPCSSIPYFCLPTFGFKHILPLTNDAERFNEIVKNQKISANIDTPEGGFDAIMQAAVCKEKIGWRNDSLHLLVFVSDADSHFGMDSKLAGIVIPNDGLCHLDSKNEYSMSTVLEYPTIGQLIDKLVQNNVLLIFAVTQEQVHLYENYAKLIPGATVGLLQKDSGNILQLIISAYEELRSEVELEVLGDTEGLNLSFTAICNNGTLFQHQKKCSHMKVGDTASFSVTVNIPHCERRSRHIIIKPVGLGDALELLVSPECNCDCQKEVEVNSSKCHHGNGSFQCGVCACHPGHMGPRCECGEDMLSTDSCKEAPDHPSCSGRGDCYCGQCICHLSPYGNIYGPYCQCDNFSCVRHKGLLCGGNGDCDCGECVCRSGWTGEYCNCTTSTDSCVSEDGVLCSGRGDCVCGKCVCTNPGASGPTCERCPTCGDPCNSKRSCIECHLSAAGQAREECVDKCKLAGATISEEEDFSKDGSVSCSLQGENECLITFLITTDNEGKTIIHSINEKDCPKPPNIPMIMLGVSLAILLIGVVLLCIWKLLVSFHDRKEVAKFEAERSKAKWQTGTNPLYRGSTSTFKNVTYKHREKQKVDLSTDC

In the case of “PEGylated A20FMDV2 not bearing K(IPA)E (peptide)”, the bound (%) [1] is reported as 52%, the internalized (% of bound radioactivity) [2] is reported as 44% and the IC50 [3] is reported as 2 nM.
